Entries after “also recorded” stand apart in the source; their conditions may differ. Marks after values point to notes of the source that are not given here.
What was measured:
[1] = cited from earlier work; for pKa (H2O): published values, source mark b or d legible
latent papain P13 = target: T1, latent papain P13 (Carica papaya, UniProt P00784); experiment: Latent papain reactivation assay with thiol activators at 10 μM, rates normalized to 10 μM cysteine (FIG. 18); assay type: biochemical; details: activator 10 μM, latent papain 1 nM, Z-Phe-Arg-AMC 2 μM; for normalized ratio rate/rate 10 μM cysteine of substrate hydrolysis after reactivation of latent papain: well buffer pH 7, no TCEP
T1 construct: purchased Sigma Aldrich (Munich, Germany); host or cells: Papaya latex (natural source)
T1 sequence (P00784 134-345): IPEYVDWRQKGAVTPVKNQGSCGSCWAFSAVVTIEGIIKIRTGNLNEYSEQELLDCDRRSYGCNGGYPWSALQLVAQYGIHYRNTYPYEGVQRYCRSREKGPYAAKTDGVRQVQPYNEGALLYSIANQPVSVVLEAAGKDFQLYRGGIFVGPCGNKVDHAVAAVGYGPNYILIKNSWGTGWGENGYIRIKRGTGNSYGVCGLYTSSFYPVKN
Description: All following described fluorometric assays (Examples 1-3) are based on the reaction of reversibly inactivated papain (latent papain) with an activator containing either sulfur or selenium (with the exception of TCEP). Different latent papain forms, buffer compositions and activators in various concentrations were compared. Papain was hereby transferred in buffer (standard well buffer consisted of 0.1 M phosphate pH 7, 4 mM EDTA, 0.01% Brij35 and if activators contained diselenides, 1 μM TCEP) mixed with activator and substrate inside 96 well plates (without prior washing of the plates). After reactivation, active papain hydrolyses the substrate Z-Phe-Arg-AMC (2 μM) and the resulting fluorescence was tracked every minute for 2 h. The slopes of the corresponding curves were calculated for the linear portion within the first 30 minutes and the resulting reaction rates were directly compared. Resulting reaction rates directly reflect reactivation efficiencies of each activator under each reaction condition. […] After addition of activator a fraction of latent papain is immediately reactivated in rather non-stoichiometric proportions. Complete reactivation can generally only be achieved with great excess of activator. The partial reactivation with smaller activator amounts appears almost instantaneously because the resulting reaction curve show linear progression from the start except for very low activator concentrations. After reactivation, all different latent papain forms result in the same active enzyme. If different latent papain forms show different reaction rates in identical activation assays, the efficiency of reactivation with the applied activator can be deduced. The same applies for reactivation of one latent papain form with different activators or reaction conditions.
Several thiol compounds and cysteine containing peptide activators (see Example 4.1) were compared for their potential to reactivate latent papain. To this end, the thiol compounds and cysteine containing peptide activators were utilized in reactivation assays (see Example 5, 5.2.2.2, fluorometric method 2) of papain P13 (see Example 1, 1.2) with an activator concentration of 10 μM. For thiols not completely soluble in phosphate buffer pH 7 at high concentrations, the 1 mM stock solution was prepared in DMSO, resulting in 1% DMSO in the reaction mixture. In order to normalize the observed reaction rates between assays, a 10 μM cysteine sample was additionally measured in every assay and reaction rates of the examined thiols were divided through the reaction rates produced by the 10 μM cysteine standard. Additionally, a measurement with 1 mM cysteine was performed in order to achieve maximal papain activation and therefore the maximal reaction rate within the confines of the assay. The resulting normalized rates are compared in FIG. 18.
(§1) Different assays of reactivating latent papain in solution were conducted in the course of this work. Various buffer compositions, supplements, 96 well plates, substrates, activators, concentrations as well as different latent papain forms were compared. In order to get an overview of all experiments, a standard method is described in the following and variations of this method are subsequently defined. First, the well buffer was prepared (0.1 M phosphate buffer pH 7, 4 mM EDTA, 0.01% Brij35). A 1 mM TCEP solution was prepared with 3 mM NaOH in 0.1 M Tris-HCl buffer pH 8. Papain substrate (Z-Phe-Arg-AMC or Suc-Leu-Leu-Val-Tyr-AMC) was prepared as a 200 μM solution in water and transferred equally to a PCR strip. Three serial dilutions of the activating agent with well buffer were used in the different experiments and the corresponding pipetting schemes are shown in Table 9. Papain was diluted to 0.1 μM with well buffer and transferred equally to a PCR strip. After preparation of the abovementioned solutions, TCEP (1 mM solution) was added to well buffer to yield a final TCEP concentration of 1.1 μM. […]

latent papain = target: T2, latent papain (Carica papaya, UniProt P00784); experiment: Latent papain reactivation with selenium/thiol activators in presence of TCEP, rates normalized to blank (FIG. 22); assay type: biochemical; details: 50 pM-100 nM activator, latent papain 1 nM, 1 μM TCEP (FIG. 22)
T2 construct: purchased Sigma Aldrich (Munich, Germany); host or cells: Papaya latex (natural source)
T2 sequence (P00784 134-345): T1 sequence (P00784 134-345)
Description: To this end, cysteine ethyl ester, DTT, DTBA (9) and SeDTBA (11) were chosen for a direct comparison. […] The resulting reaction rates were normalized against the background activity and the resulting normalized rates are presented in FIG. 22 for the concentration range of 50 pM-100 nM.
Different assays of reactivating latent papain in solution were conducted in the course of this work. Various buffer compositions, supplements, 96 well plates, substrates, activators, concentrations as well as different latent papain forms were compared. In order to get an overview of all experiments, a standard method is described in the following and variations of this method are subsequently defined. First, the well buffer was prepared (0.1 M phosphate buffer pH 7, 4 mM EDTA, 0.01% Brij35). A 1 mM TCEP solution was prepared with 3 mM NaOH in 0.1 M Tris-HCl buffer pH 8. Papain substrate (Z-Phe-Arg-AMC or Suc-Leu-Leu-Val-Tyr-AMC) was prepared as a 200 μM solution in water and transferred equally to a PCR strip. Three serial dilutions of the activating agent with well buffer were used in the different experiments and the corresponding pipetting schemes are shown in Table 9. Papain was diluted to 0.1 μM with well buffer and transferred equally to a PCR strip. […] After mixing, 30 μL of the prepared activator concentrations (see Table 9) were added and mixed. In the last step, 3.8 μL of the substrate solution was added and mixed, to yield a final well composition of 0.1 M phosphate buffer pH 7, 1 nM papain, 2 μM substrate, activator (see Table 9), 4 mM EDTA, 0.01% Brij35 and 1 μM TCEP. For experiments with only one activator concentration of 10 μM, the transferred well buffer for each well was 368.6 μL, followed by 3.8 μL of papain, substrate and activator (1 mM in well buffer) respectively.

[2] = target: T3, dU-triazole-PEG3-ULR dimer (21) (not fully specified)
T3 chain: ULR

[3] = target: T4, latent papain forms P20-P28 (Carica papaya, UniProt P00784); experiment: Comparison of reactivation efficiencies of latent papain forms with activator dU-triazole-PEG3-ULR (21) (FIG. 15, 16); assay type: biochemical; details: for normalized rate/rate blank after reactivation, in words / reaction rate of substrate hydrolysis after reactivation (not normalized), in words: activator dU-triazole-PEG3-ULR (21) 1-15 nM; for normalized rate/rate blank after reactivation, in words: papain 1 nM (FIG. 16); for reaction rate of substrate hydrolysis after reactivation (not normalized), in words: papain 1 nM (FIG. 15)
T4 construct: purchased Sigma Aldrich (Munich, Germany); host or cells: Papaya latex (natural source)
T4 sequence (P00784 134-345): T1 sequence (P00784 134-345)
Description: In order to reversibly deactivate commercially purchased papain, reactions with different thiosulfonate derivatives were carried out and different latent papain versions were produced. Papain was first incubated with cysteine to yield complete activated papain which could then be incubated and deactivated with the specific thiosulfonate solutions. A mixture of papain disulfides is otherwise to be expected. An additional step was introduced in this work with the goal of further reduction of residual enzymatic activity. After incubation with either thiosulfonate derivative, papain was thus incubated with equimolar amounts of the more efficient irreversible inhibitor E64 (see Example 5, 5.2.1.2) in order to deactivate possible unmodified papain traces. The excess of small molecules was then separated by Sephadex G25 spin columns. Different thiosulfonates were synthesized (data not shown) and used to produce different latent papain forms, to the authors best knowledge yet unknown to literature (P23, P24 and P26), with their reactivation efficiency directly compared. The four thiosulfonates S-benzyl (1)-, S-propyl (2)-, S-(2-acetic acid) (3)- and S-(2-aminoethyl) (5)-ethanethiosulfonate are shown in FIGS. 6 and 13.
All latent papain forms were synthesized as described (see Example 5, 5.2.1.2) and concentrations of the stock solutions were determined (see Example 5, 5.2.1.3) and are shown in FIG. 14. In favor of allowing for precise comparison of all different papain forms, papain P20-28 were produced and processed simultaneously, whereas production of P28 differed in lack of pre-activation with cysteine and incubation with E64 in order to examine if those two steps are indeed affecting the latent papain quality (P20 vs. P28).
The successfully produced latent papain forms were then utilized in a reactivation assay in accordance with the method of the invention (see Example 5, 5.2.2.2), fluorometric method 1) with the selenocysteine containing activator dU-triazole-PEG3-ULR (21) in concentrations from 1 nM-15 nM. The resulting reaction rates of every papain and every activator concentration are directly compared in FIG. 15.
On second look, it becomes clear that the calculated rates have to be considered in relation to the residual papain activity. Without activator present, the rates of papain differ greatly between the latent derivatives. This must be due solely to their chemical properties and not to a result of remaining active papain after incubation with thiosulfonate, because subsequent incubation with equimolar amounts of E64 inhibitor will inevitably deactivate remaining active papain irreversibly (see Example 5, 5.2.1.2). In order to normalize the presented reaction rates, they were divided through the reaction rate of the corresponding residual activity (blank value) and results are shown in FIG. 16.
as §1

**Q.** Which results are given for `O=[N+]([O-])c1ccc(S)nc1` [2-mercapto-5-nitropyridine, 2-Mercapto-5-nitropyridine]?
**A.** pKa of thiol, as discussed in text [1]: 7.1; reaction rate compared to L-cysteine (latent papain P13; pH 7): less than 15%

**Q.** Which “pKa (H2O)” value [1] does the source give for `Sc1ccc(Br)cc1` [4-Bromothiophenol] here?
**A.** Its value is 6.0^b.

**Q.** With `COc1ccc(S)cc1` [4-Methoxythiophenol] as the molecule, how does the “pKa (H2O)” value [1] read?
**A.** The value was 6.8^b.

**Q.** With `O[C@@H](CS)[C@@H](O)CS` [DTT] as the molecule, how does the “activator efficiency (normalized rate/rate blank), in words” value (latent papain) read?
**A.** Its value is “no substantial rate increase”.

**Q.** With `SCc1ccccc1` [benzyl mercaptan, Benzylmercaptan] as the molecule, how does the “pKa (H2O)” value [1] read?
**A.** The value was 9.4^b.

**Q.** And the “normalized ratio rate/rate 10 μM cysteine of substrate hydrolysis after reactivation of latent papain” value (latent papain P13)?
**A.** The value was 1.69.

**Q.** For `O=S(=O)(CCS)CCS` [bis(2-mercaptoethyl) sulfone], which “pKa of thiol, as discussed in text” value [1] is on record?
**A.** The value was 7.9.

**Q.** What about the “normalized ratio rate/rate 10 μM cysteine of substrate hydrolysis after reactivation of latent papain” value (latent papain P13) of the same molecule?
**A.** The value was 3.17.

**Q.** With seleno-dithiobutylamin [SeDTBA (11)] as the molecule, how does the “activator efficiency (normalized rate/rate blank), in words” value (latent papain) read?
**A.** The value was “second most efficient activator; also recorded: almost twice as high compared to DTBA (9)”.

B1: latent papain P24 (-S-S-CH2-COOH) (protein)
chain: T1 sequence (P00784 134-345)
**Q.** Which “normalized ratio rate/rate blank of substrate hydrolysis after reactivation of latent papain (1 nM) with activator 1-15 nM” value [2] does the source give for B1 here?
**A.** The value was “featured low normalized rates as seen for P24”.

**Q.** What about the “reaction rate of Z-Phe-Arg-AMC hydrolysis after reactivation of latent papain (1 nM) with activator 1-15 nM” value [2] of the same molecule?
**A.** The value was “Papain P24 with its negatively charged residue showed reaction rates close to Papain P20 with the methyl residue”.

B2: P25: latent papain form with propyl disulfide residue (protein)
chain: T1 sequence (P00784 134-345)
**Q.** For B2, which “normalized rate/rate blank after reactivation, in words” value [3] is on record?
**A.** Its value is “surprisingly low reactivation potential”.

B3: P24: latent papain form with negatively charged acetic acid disulfide residue (protein)
chain: T1 sequence (P00784 134-345)
**Q.** Which “normalized rate/rate blank after reactivation, in words” value [3] does the source give for B3 here?
**A.** The value was “low normalized rates”.

B4: P26: latent papain form with benzyl disulfide residue (protein)
chain: T1 sequence (P00784 134-345)
**Q.** Which “reaction rate of substrate hydrolysis after reactivation (not normalized), in words” value [3] does the source give for B4 here?
**A.** The value was “greatly reduced rates”.

**Q.** What about the “normalized rate/rate blank after reactivation, in words” value [3] of the same molecule?
**A.** The value was “third highest normalized rate values”.

B5: latent papain P26 (S-S-CH2-C6H5) (protein)
chain: T1 sequence (P00784 134-345)
**Q.** What does the source list for B5?
**A.** normalized ratio rate/rate blank of substrate hydrolysis after reactivation of latent papain (1 nM) with activator 1-15 nM [2]: papain P26 showed the third highest normalized rate values; reaction rate of Z-Phe-Arg-AMC hydrolysis after reactivation of latent papain (1 nM) with activator 1-15 nM [2]: The papain variant P26 with its benzyl residue showed greatly reduced rates when compared to all other variants

B6: P23: latent papain form with positively charged aminoethyl disulfide residue (protein)
chain: T1 sequence (P00784 134-345)
**Q.** Which “reaction rate of substrate hydrolysis after reactivation (not normalized), in words” value [3] does the source give for B6 here?
**A.** The value was “by far the most efficiently reactivated latent papain form”.

B7: P20: latent papain, methyl mixed disulfide, with cysteine pre-activation and E64 (protein)
chain: T1 sequence (P00784 134-345)
**Q.** Which “normalized rate/rate blank after reactivation, in words” value [3] does the source give for B7 here?
**A.** Its value is “highest of all papain forms; also recorded: twice as high as P28”.

**Q.** What about the “residual activity rate compared to P23” value ([3]; without activator (blank), papain 1 nM) of the same molecule?
**A.** The value was 25%.

B8: latent papain P25 (-S-S-(CH2)2-CH3) (protein)
chain: T1 sequence (P00784 134-345)
**Q.** Which “normalized ratio rate/rate blank of substrate hydrolysis after reactivation of latent papain (1 nM) with activator 1-15 nM” value [2] does the source give for B8 here?
**A.** The value was “The second aliphatic residue of P25 showed surprisingly low reactivation potential towards the activator”.

— patent US20260055441A1, “A PCR-ELISA ANALOGOUS ANTIBODY-FREE METHOD FOR DETECTING A TARGET NUCLEIC ACID IN A SAMPLE” (UNIVERSITÄT HEIDELBERG, priority 2022, published 2026)
